Assay [1] has as its target T1, human CD98 (hCD98) on cells (human, UniProt P08195 2-529).
T1 construct: also called CHO-hCD98; hCD98-expressing CHO cells
T1 sequence: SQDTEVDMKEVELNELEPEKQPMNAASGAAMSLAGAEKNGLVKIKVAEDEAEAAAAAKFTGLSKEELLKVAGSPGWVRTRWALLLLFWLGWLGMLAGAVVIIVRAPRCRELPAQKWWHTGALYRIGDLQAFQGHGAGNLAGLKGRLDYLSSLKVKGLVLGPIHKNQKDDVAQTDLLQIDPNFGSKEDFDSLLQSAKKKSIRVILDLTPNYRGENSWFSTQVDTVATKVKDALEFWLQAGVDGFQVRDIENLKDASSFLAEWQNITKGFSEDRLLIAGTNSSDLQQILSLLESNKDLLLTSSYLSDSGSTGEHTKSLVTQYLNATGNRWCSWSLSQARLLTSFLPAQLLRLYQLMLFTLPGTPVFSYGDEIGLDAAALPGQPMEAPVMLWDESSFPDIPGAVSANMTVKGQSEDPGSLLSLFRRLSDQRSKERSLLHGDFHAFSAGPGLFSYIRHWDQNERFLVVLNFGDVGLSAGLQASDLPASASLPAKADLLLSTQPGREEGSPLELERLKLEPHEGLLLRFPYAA
The experiment in a line: immunofluorescence on kidney sections of CD98 humanized mice (hCD98 ECD knock-in), FITC anti-human IgG secondary.

A further assay addresses T2, mouse CD98 (mCD98) ECD (mouse, UniProt P10852 100-526).
T2 construct: extracellular domain; By the methods the CD98 ECDs were His6-Avi-tagged; also called murine CD98
T2 sequence (looked up): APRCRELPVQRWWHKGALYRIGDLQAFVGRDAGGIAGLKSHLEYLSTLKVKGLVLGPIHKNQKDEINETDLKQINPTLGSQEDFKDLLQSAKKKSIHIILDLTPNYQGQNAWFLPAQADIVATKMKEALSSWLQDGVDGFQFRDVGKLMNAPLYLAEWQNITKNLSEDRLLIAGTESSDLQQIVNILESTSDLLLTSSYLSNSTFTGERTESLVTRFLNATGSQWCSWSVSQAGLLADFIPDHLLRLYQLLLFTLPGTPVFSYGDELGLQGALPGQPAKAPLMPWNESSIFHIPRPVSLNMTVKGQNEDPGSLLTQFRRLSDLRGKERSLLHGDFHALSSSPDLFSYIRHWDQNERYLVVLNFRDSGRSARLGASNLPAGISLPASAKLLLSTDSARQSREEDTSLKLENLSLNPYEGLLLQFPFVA
In words: SPR (Biacore T200), antibody captured, mouse CD98 ECD as analyte, 1:1 Langmuir model.

Assay [2] has as its target T3, hCD98 ECD-His6-Avi (human, UniProt P08195 105-529, biotinylated by BirA ligase on the Avi tag (form used in ELISA)).
T3 construct: also called hCD98 ECD-His6-Avi-Biotin; not shown: His6-Avi tag
T3 sequence: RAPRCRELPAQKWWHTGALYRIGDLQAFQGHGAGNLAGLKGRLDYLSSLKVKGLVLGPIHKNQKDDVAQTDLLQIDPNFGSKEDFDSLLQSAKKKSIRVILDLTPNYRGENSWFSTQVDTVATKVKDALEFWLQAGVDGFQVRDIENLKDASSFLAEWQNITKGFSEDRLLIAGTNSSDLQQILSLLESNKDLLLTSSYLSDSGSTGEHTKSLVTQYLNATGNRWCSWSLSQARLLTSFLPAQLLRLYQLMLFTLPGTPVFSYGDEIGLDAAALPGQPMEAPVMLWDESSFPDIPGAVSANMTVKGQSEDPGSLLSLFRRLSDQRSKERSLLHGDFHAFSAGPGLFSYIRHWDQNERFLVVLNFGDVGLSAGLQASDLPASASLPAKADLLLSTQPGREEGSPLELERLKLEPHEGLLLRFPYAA
The experiment in a line: SPR (Biacore T200), antibody captured, hCD98 ECD as analyte, 1:1 Langmuir model.

Assay [3] concerns the target T3, hCD98 ECD-His6-Avi. The experiment in a line: SPR (Biacore T200), antibody captured, hCD98 ECD as analyte.
Protocol: (§1) Kinetic analysis of the bindings of anti-CD98 antibodies to the ECD of CD98, and the ECD of FcγRs were performed on a Biacore T200 instrument (Biacore, GE Healthcare). Anti-hFc Ab or protein A/G (Thermo Fisher Scientific) was covalently attached to the surface of a CM5 sensor chip using an amine coupling kit (GE Healthcare). Antibodies at optimal concentrations were captured on the chip and the analytes (CD98 or FcγRs) were then injected at 2-fold serial diluted concentrations. Binding kinetics were evaluated using a 1:1 Langmuir binding model. The ka, kd, and KD values were calculated using Biacore T200 evaluation software.
The target of assay [4] is T3, hCD98 ECD-His6-Avi. The experiment in a line: ELISA at pH 7.4 and pH 6.5 on hCD98 ECD-His6-Avi-Biotin.
The target of assay [5] is T3, hCD98 ECD-His6-Avi. In words: ELISA at pH 6.5 on hCD98 ECD-His6-Avi-Biotin.
Assay [6] has as its target T3, hCD98 ECD-His6-Avi. The experiment in a line: ELISA at pH 7.4 on hCD98 ECD-His6-Avi-Biotin.
The target in assay [7] is T3, hCD98 ECD-His6-Avi. The experiment in a line: ELISA at pH 6.5, biotinylated hCD98 ECD captured on streptavidin.
Protocol: (§2) For the ELISA-based analysis of antibody binding with antigen, biotinylated protein antigens were captured with streptavidin (Sigma-Aldrich) coated 96-well plates (Nunc, MaxiSorp™). Then, serially diluted antibodies were added, and detected by adding an HRP-labeled goat polyclonal anti-Human IgG Fc (Thermo Fisher Scientific).
Assay [8] has as its target T3, hCD98 ECD-His6-Avi. The experiment in a line: ELISA at pH 7.4 and pH 6.5 on hCD98 ECD.
Assay [9] addresses T3, hCD98 ECD-His6-Avi. In words: ELISA at pH 6.5, ratio of EC50 values against S1-F4 Y97E.
Assay [10] deals with T3, hCD98 ECD-His6-Avi. The experiment in a line: ELISA, EC50 ratio pH 7.4/6.5 against that of S1-F4 Y97E.
Protocol: as §2
The target in assay [11] is T3, hCD98 ECD-His6-Avi. The experiment in a line: ELISA at pH 7.4, biotinylated hCD98 ECD captured on streptavidin, HRP anti-human IgG Fc.
Protocol: as §2
The target in assay [12] is T3, hCD98 ECD-His6-Avi. The experiment in a line: ELISA at pH 7.4, biotinylated hCD98 ECD captured on streptavidin; pH 7.4.
Protocol: as §2
Assay [13] deals with T3, hCD98 ECD-His6-Avi. The experiment in a line: ELISA at pH 6.5, biotinylated hCD98 ECD captured on streptavidin; pH 6.5.
Protocol: as §2

Protocol for mouse CD98 (mCD98) ECD: as §1

B1: BC8 (antibody, V domains shown)
VH: EVQLVESGGGVVQPGRSLRLSCAASGFTVSNNYMSWVRQAPGKGLEWVSVIYSGGKTYYADSAKGRFTISRDNSKNTVFLQMNSLRVEDTAVYYCARVSGLGWFDPWGQGTLVTVSS
VL: not shown
notes: human IgG1 format by the methods (detected with anti-human IgG); also called anti-mouse CD98 antibody BC8; mCD98-specific Ab
For B1, the binding result in [1] is recorded as “no binding (tested: 15 µg/ml)”. In the assay with mouse CD98 (mCD98) ECD, this molecule returned a Kd of 86.1 nM, a koff of 0.00344 s⁻¹ and a kon of 40000 M⁻¹ s⁻¹.

B2: HN2-G9 (antibody, V domains shown)
VH: QVQLVQSGAEVKKPGSSVKVSCKASGYTFTSYYMHWVRQAPGQGLEWMGIINPSGGSTSYAQKFQGRVTMTRDTSTSTVYMELSSLRSEDTAVYFCARGYCSGGRCYSDFQHWGQGTLVTVSS
VL: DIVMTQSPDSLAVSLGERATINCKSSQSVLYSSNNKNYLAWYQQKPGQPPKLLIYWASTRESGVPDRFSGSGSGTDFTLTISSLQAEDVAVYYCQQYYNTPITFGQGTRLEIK
For the molecule B2, in the assay with hCD98 ECD-His6-Avi [2], the koff was 0.102 s⁻¹ and the kon came to 787000 M⁻¹ s⁻¹. In the assay with hCD98 ECD-His6-Avi [3], this molecule displayed a Kd of 1290 nM.

B3: IGN523 (antibody, V domains shown)
VH: QVQLVQSGAEVKKPGSSVKVSCKASGNAFTNYLIEWVRQAPGQGLEWMGVINPGSGITNYNEKFKGKATITADKSTSTAYMELSSLRSEDTAVYYCSGSANWFAYWGQGTLVTVSS
VL: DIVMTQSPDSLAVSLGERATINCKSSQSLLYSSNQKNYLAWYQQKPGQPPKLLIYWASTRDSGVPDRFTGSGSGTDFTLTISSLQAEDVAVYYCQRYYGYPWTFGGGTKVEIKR
In the assay with hCD98 ECD-His6-Avi [2], B3 showed a Kd of 0.722 nM, a koff of 0.000145 s⁻¹ and a kon of 201000 M⁻¹ s⁻¹.

B4: Ab8332 (antibody, V domains shown)
VH: QVQLVQSGAEVKKPGASVKVSCKASGYTFTSYQMHWVRQAPGQGLEWMGIINPSGGSTSYAQKFQGRVTMTRDTSTSTVYMELSSLRSEDTAVYYCARGYEDSNTHQHPIFFDIWGQGTMVTVSS
VL: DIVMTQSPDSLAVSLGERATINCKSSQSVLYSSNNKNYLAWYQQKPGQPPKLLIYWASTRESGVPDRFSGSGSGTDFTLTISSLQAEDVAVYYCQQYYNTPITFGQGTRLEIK
notes: human IgG1 format by the methods
Regarding B4, the “EC50 ratio (pH 7.4/6.5)” value with hCD98 ECD-His6-Avi [4] was 50.7. Further, the “EC50 (read off the curve)” value with hCD98 ECD-His6-Avi [5] is roughly 0.1 nM; with hCD98 ECD-His6-Avi [6] it was roughly 5 nM.

B5: H15L1 (antibody, human IgG1, V domains shown)
VH: QVQLVQSGAEVKKPGASVKVSCKASGYTFTSYQMHWVRQAPGQGLEWMGIINDKHGSTSYAQKFQGRVTMTRDTSTSTVYMELSSLRSEDTAVYYCARGYEDSNTHQHPIFFDIWGQGTMVTVSS
VL: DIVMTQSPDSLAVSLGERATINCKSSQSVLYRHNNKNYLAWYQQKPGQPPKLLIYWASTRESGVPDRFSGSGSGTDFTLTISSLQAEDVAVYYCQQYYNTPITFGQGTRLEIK
notes: as for B4
B5: the “EC50 ratio (pH 7.4/6.5)” value with hCD98 ECD-His6-Avi [4] worked out at 11.8.

B6: H15L54 (antibody, human IgG1, V domains shown)
VH: QVQLVQSGAEVKKPGASVKVSCKASGYTFTSYQMHWVRQAPGQGLEWMGIINDKHGSTSYAQKFQGRVTMTRDTSTSTVYMELSSLRSEDTAVYYCARGYEDSNTHQHPIFFDIWGQGTMVTVSS
VL: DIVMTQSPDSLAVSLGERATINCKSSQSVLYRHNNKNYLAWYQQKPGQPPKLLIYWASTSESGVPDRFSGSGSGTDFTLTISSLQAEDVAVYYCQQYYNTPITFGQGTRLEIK
notes: human IgG1 format by the methods; also called pH-dependent anti-hCD98 antibody H15L54
With B6, it took 0.247 nM to reach a half-maximal effect with hCD98 ECD-His6-Avi [7] (EC50). Moreover, the “EC50 ratio (pH 7.4/6.5)” value with hCD98 ECD-His6-Avi [8] amounted to 38. In addition, the “fold higher binding activity at pH 6.5 than S1-F4 Y97E” value with hCD98 ECD-His6-Avi [9] is roughly 7 fold. In addition, the “fold higher binding pH-dependence than S1-F4 Y97E” value with hCD98 ECD-His6-Avi [10] was roughly 14 fold. The “EC50 (read off the curve)” value with hCD98 ECD-His6-Avi [11] was roughly 5 nM.

B7: H15L35 (antibody, human IgG1, V domains shown)
VH: QVQLVQSGAEVKKPGASVKVSCKASGYTFTSYQMHWVRQAPGQGLEWMGIINDKHGSTSYAQKFQGRVTMTRDTSTSTVYMELSSLRSEDTAVYYCARGYEDSNTHQHPIFFDIWGQGTMVTVSS
VL: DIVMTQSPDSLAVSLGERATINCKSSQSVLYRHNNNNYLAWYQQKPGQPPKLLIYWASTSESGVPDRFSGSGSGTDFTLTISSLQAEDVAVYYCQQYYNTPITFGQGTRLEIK
notes: as for B4
For B7, the “EC50 ratio (pH 7.4/6.5)” value with hCD98 ECD-His6-Avi [4] came out at 16.

B8: S1-F4 Y97E (antibody, V domains shown)
VH: QVQLVQSGAEVKKPGASVKVSCKASGYTFTSYYMHWVRQAPGQGLEWMGIINPSGGSTSYAQKFQGRVTMTRDTSTSTVYMELSSLRSEDTAVYYCARGYEDILTGSRPIFFDIWGQGTMVTVSS
VL: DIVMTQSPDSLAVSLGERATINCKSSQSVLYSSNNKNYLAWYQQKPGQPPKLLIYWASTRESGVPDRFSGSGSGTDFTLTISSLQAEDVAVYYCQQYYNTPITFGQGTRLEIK
notes: S1-F4 with Y97E in HCDR3; also called S1-F4 VH Y97E
As for B8, the “EC50 ratio (pH 7.4/6.5)” value in the assay with hCD98 ECD-His6-Avi [8] was determined as 2.7. For the same molecule, the EC50 worked out at 4.53 nM with hCD98 ECD-His6-Avi [12] and 1.69 nM with hCD98 ECD-His6-Avi [13].

The record behind these values is patent US20250084177A1 (HUAHUI HEALTH, published 2025).
